These results are taken from the supplement of paper PMC5998384.

Data set [1] has as its system HeLa Kyoto. Put plainly: thermal stability score vs G1/S (z-score of summed log2 fold changes over temperatures); higher = more thermally stable than in G1/S.
Data set [2] has as its system HeLa Kyoto. Put plainly: solubility change mitosis vs G1/S (difference of NP-40 vs SDS log2 ratios) (log2 ratio difference); higher = more soluble in mitosis.
In data set [3] the test system is HeLa Kyoto. Put plainly: solubility in G1/S (NP-40 vs SDS abundance) (log2 ratio); higher = more soluble. The settings on record: cell cycle stage: G1/S.
Data set [4] has as its system HeLa Kyoto. Description: melting temperature (median over replicates), in situ; higher = more thermally stable.
Where [5] appears, read: cell cycle stage: early G1 (4.5 h after nocodazole release).
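Throughout, for melting temperature (median over replicates), in situ: HeLa Kyoto cells synchronized by double thymidine or nocodazole block, proteins quantified by TMT10plex mass spectrometry, three independent biological replicates.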
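Throughout, for solubility change mitosis vs G1/S (difference of NP-40 vs SDS log2 ratios): synchronized HeLa Kyoto cells (double thymidine block for G1/S, nocodazole release for mitosis), protein amounts in NP-40 versus SDS lysates quantified by mass spectrometry, three biological replicates.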
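Throughout, for solubility in G1/S (NP-40 vs SDS abundance): HeLa Kyoto cells arrested at G1/S by double thymidine block, proteins quantified by TMT10plex mass spectrometry in mild NP-40 versus SDS extracts, three biological replicates.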
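Throughout, for thermal stability score vs G1/S (z-score of summed log2 fold changes over temperatures): synchronized HeLa Kyoto cells, proteins quantified by TMT10plex mass spectrometry, three biological replicates, mitosis taken 0.5 h after nocodazole release, G1/S directly after double thymidine block.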

On to “METQLQSIFEEVVKTEVIEEAFPGMFMDTPEDEKTKLISCLGAFRQFWGGLSQESHEQCIQWIVKFIHGQHSPKRISFLYDCLAMAVETGLLPPRLVCESLINSDTLEWERTQLWALTFKLVRKIIGGVDYKGVRDLLKVILEKILTIPNTVSSAVVQQLLAAREVIAYILERNACLLPAYFAVTEIRKLYPEGKLPHWLLGNLVSDFVDTFRPTARINSICGRCSLLPVVNNSGAICNSWKLDPATLRFPLKGLLPYDKDLFEPQTALLRYVLEQPYSRDMVCNMLGLNKQHKQRCPVLEDQLVDLVVYAMERSETEEKFDDGGTSQLLWQHLSSQLIFFVLFQFASFPHMVLSLHQKLAGRGLIKGRDHLMWVLLQFISGSIQKNALADFLPVMKLFDLLYPEKEYIPVPDINKPQSTHAFAMTCIWIHLNRKAQNDNSKLQIPIPHSLRLHHEFLQQSLRNKSLQMNDYKIALLCNAYSTNSECFTLPMGALVETIYGNGIMRIPLPGTNCMASGSITPLPMNLLDSLTVHAKMSLIHSIATRVIKLAHAKSSVALAPALVETYSRLLVYMEIESLGIKGFISQLLPTVFKSHAWGILHTLLEMFSYRMHHIQPHYRVQLLSHLHTLAAVAQTNQNQLHLCVESTALRLITALGSSEVQPQFTRFLSDPKTVLSAESEELNRALILTLARATHVTDFFTGSDSIQGTWCKDILQTIMSFTPHNWASHTLSCFPGPLQAFFKQNNVPQESRFNLKKNVEEEYRKWKSMSNENDIITHFSMQGSPPLFLCLLWKMLLETDHINQIGYRVLERIGARALVAHVRTFADFLVYEFSTSAGGQQLNKCIEILNDMVWKYNIVTLDRLILCLAMRSHEGNEAQVCYFIIQLLLLKPNDFRNRVSDFVKENSPEHWLQNDWHTKHMNYHKKYPEKLYFEGLAEQVDPPVQIQSPYLPIYFGNVCLRFLPVFDIVIHRFLELLPVSKSLETLLDHLGGLYKFHDRPVTYLYNTLHYYEMHLRDRAFLKRKLVHAIIGSLKDNRPQGWCLSDTYLKCAMNAREENPWVPDDTYYCRLIGRLVDTMAGKSPGPFPNCDWRFNEFPNPAAHALHVTCVELMALAVSGKEVGNALLNVVLKSQPLVPRENITAWMNAIGLIITALPEPYWIVLHDRIVSVISSPSLTSETEWVGYPFRLFDFTACHQSYSEMSCSYTLALAHAVWHHSSIGQLSLIPKFLTEVLLPIVKTEFQLLYVYHLVGPFLQRFQQERTRCMIEIGVAFYDMLLNVDQCSTHLNYMDPICDFLYHMKYMFTGDSVKEQVEKIICNLKPALKLRLRFITHISKMEPAAVPPQAMNSGSPAPQSNQVPVSLPVTQ [MED23]”, for which the thermal stability score worked out at 1.35 with HeLa Kyoto [1] (setting [5]) and 1.94 in the data set with HeLa Kyoto [1] (cell cycle stage: mitosis). The “solubility change mitosis (log2)” value in the data set with HeLa Kyoto [2] was -0.141. In addition, the “solubility in G1/S (log2)” value with HeLa Kyoto [3] is -0.217. Also, the melting temperature in the data set with HeLa Kyoto [4] (cell cycle stage: G1/S) was 50.5 °C; with HeLa Kyoto [4] (cell cycle stage: mitosis) it was 51.1 °C.
On to “MAVFRSGLLVLTTPLASLAPRLASILTSAARLVNHTLYVHLQPGMSLEGPAQPQSSPVQATFEVLDFITHLYAGADVHRHLDVRILLTNIRTKSTFLPPLPTSVQNLAHPPEVVLTDFQTLDGSQYNPVKQQLVRYATSCYSCCPRLASVLLYSDYGIGEVPVEPLDVPLPSTIRPASPVAGSPKQPVRGYYRGAVGGTFDRLHNAHKVLLSVACILAQEQLVVGVADKDLLKSKLLPELLQPYTERVEHLSEFLVDIKPSLTFDVIPLLDPYGPAGSDPSLEFLVVSEETYRGGMAINRFRLENDLEELALYQIQLLKDLRHTENEEDKVSSSSFRQRMLGNLLRPPYERPELPTCLYVIGLTGISGSGKSSIAQRLKGLGAFVIDSDHLGHRAYAPGGPAYQPVVEAFGTDILHKDGIINRKVLGSRVFGNKKQLKILTDIMWPIIAKLAREEMDRAVAEGKRVCVIDAAVLLEAGWQNLVHEVWTAVIPETEAVRRIVERDGLSEAAAQSRLQSQMSGQQLVEQSHVVLSTLWEPHITQRQVEKAWALLQKRIPKTHQALD [COASY]”, for which the thermal stability score with HeLa Kyoto [1] (setting [5]) is 2.77; in the data set with HeLa Kyoto [1] (cell cycle stage: mitosis), 4.34. Moreover, the “solubility change mitosis (log2)” value with HeLa Kyoto [2] is -0.14. For the same sequence, the “solubility in G1/S (log2)” value in the data set on HeLa Kyoto [3] is 0.236. Besides, the melting temperature was determined as 48.1 °C in the data set with HeLa Kyoto [4] (cell cycle stage: G1/S) and 48.8 °C with HeLa Kyoto [4] (cell cycle stage: mitosis).
Take “MAGAATQASLESAPRIMRLVAECSRSRARAGELWLPHGTVATPVFMPVGTQATMKGITTEQLDALGCRICLGNTYHLGLRPGPELIQKANGLHGFMNWPHNLLTDSGGFQMVSLVSLSEVTEEGVRFRSPYDGNETLLSPEKSVQIQNALGSDIIMQLDDVVSSTVTGPRVEEAMYRSIRWLDRCIAAHQRPDKQNLFAIIQGGLDADLRATCLEEMTKRDVPGFAIGGLSGGESKSQFWRMVALSTSRLPKDKPRYLMGVGYATDLVVCVALGCDMFDCVFPTRTARFGSALVPTGNLQLRKKVFEKDFGPIDPECTCPTCQKHSRAFLHALLHSDNTAALHHLTVHNIAYQLQLMSAVRTSIVEKRFPDFVRDFMGAMYGDPTLCPTWATDALASVGITLG [QTRT1]”: the thermal stability score stood at 1.96 in the data set with HeLa Kyoto [1] (setting [5]) and 0.0564 in the data set with HeLa Kyoto [1] (cell cycle stage: mitosis). Besides, in the data set with HeLa Kyoto [2], the “solubility change mitosis (log2)” value is -0.0923. The “solubility in G1/S (log2)” value with HeLa Kyoto [3] amounted to 0.174. In addition, the values for the melting temperature in the data set with HeLa Kyoto [4] (cell cycle stage: G1/S) and with HeLa Kyoto [4] (cell cycle stage: mitosis) were 55.6 °C and 54.9 °C, respectively.
